Results published in patent publication US20100280227A1.

Molecular target: human BAFF (residues 82-285) (human) (UniProt Q9Y275)
Assay: BJAB cell competitive binding assay: soluble BR3-Fc keeps biotin-BAFF from BR3 on the cells

Sequence of human BAFF (residues 82-285) (human) (Q9Y275 82-285 limits assumed): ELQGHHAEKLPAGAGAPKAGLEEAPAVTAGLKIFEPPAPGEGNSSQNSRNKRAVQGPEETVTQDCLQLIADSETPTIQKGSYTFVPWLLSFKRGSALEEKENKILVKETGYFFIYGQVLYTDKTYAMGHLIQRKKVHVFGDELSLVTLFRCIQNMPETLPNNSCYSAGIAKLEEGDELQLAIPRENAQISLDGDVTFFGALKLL

hBR3Fc (Fc fusion) was tested. Which IC50 did it give?
The IC50 was 3.22 nM.
